According to the nanobody polyreactivity screen of Harvey et al. (2022):

Assay: yeast display, Sf9 membrane polyspecificity reagent, FACS + sequencing; frameworks hold sequencing errors
Method in brief: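 Synthetic nanobody libraries on Saccharomyces cerevisiae BJ5465 were galactose-induced for 36–48 hours, stained 1 hour at 4 °C with 10% biotinylated, detergent-solubilized Sf9 membrane reagent and enriched on streptavidin microbeads. FACS then separated cells into low and high (top ~1%) gates by anti-HA (expression) and streptavidin (reagent binding) fluorescence. Genes were colony-PCR amplified, MiSeq 2 × 250 sequenced and CDR-length filtered. A clone's polyreactivity label is that of its gate of origin.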

Sequence | polyreactivity (PSR sort gate)
QVQLEESGGRLVQAGGSLRLICAASGSTFLANAMGWYRQAPGKERELVATISSGGSTNYADSVKGRFTISRDNAKNTVYLQMNSLKPEDTAVYYCAAEYWYAWQEYGYWGQGTQVTVSS | low polyreactivity
QVQLVESGGGLVQAGGSLRLSCAASGGTFLYNAMGWYRQAPGKERELVAAISRSGGRTDYADSVKGRFTISRDNAKNTVYLQMNSLKPEDTAVYYCATPGTYYTHRYRYDYWGHGTQVTVSS | high polyreactivity
QVQLVESGGGLVQAGGSLRLSCAASGRTFGVYAMGWYRQAPWKERELVAGIRWRGGSTYYADSVKGRFTISRDNAKNTVYLQMNSLKPEDTAVYYCAADVYLVKYDYWGQGTQVTVSS | low polyreactivity
QVQLVESGGGLVQAGGSLRLSCAASGRIFSRSAMGWYRQAPGKERELVAAIRWSTGSTNYADSVKGRFTISRDNAKNTVYLQMNSLKPEDTAVYYCNARYYVRPYSPGYYYWGQGTQVTVSS | high polyreactivity
QVQLVESGGGLVQAGGSLRLSCAASGRTFTKYAKGWYRQAPGKERELVAAISNSGGSTFYADSVKGRFTISRDNAKNTVYLQMNSLKPEDTAVYYCAVDLGDTQYVPFDYWGQGTQVTVSS | low polyreactivity
QVQLVESGGGLVQAGGSLRLICAASGRIFRYYAMGWYRQAPGKERELVAAISYSGGSTYYADSVKGRFTISRDNEKNTVYLQMNILKPEDTAVYYCNAGSWKSYYSTVRYLTYSMYYWGQGTQVTVSS | high polyreactivity
QVQHVESGGGLVQAAGSLRLSCAASGRIFYRNAMGWSRQAPGKERELVAAISKSGGSTYYSDSVKGRFTISRDNAKNTVYLQMNSLKPEDTAVYYCAAGTRLSDGYYWGQGTQVTVSS | high polyreactivity
QVQLVESGGGLVQAGGSLRLSCAASGITFPGNAMGWYRQAPGKERDLVAVISSGTSTNYADSVKGRFTISRDNAKNTVYLHMNSLKPEDTAVYYCAKATSSFYHYRYDYWGQGTQVTVSS | low polyreactivity
QVQLVESGGGLVQAGGSLRLSCAASGRTLSYYAMGWYRQAPGKHRELVAAITYRAGRTYYADSVKGRFTISRDNAKYTVYLQLNSLKPEVTAVYYCYAVKSTGYGYWGQGTQVTVSS | high polyreactivity
QVQLVESGGGIVQAGGSLRVSCAASGFTFHKYAMGWYRQAPGTERELVAVISQSASSTYYADSVKGRFTISRDNAKNTVYFQMNGLKPEDTAVYYCNAKYYRYNRRNYWGQVTQVTVSS | high polyreactivity
QVQLVESGGGLVQAGGSLRLSCAASGNIFARYAMGWYRQAPGKERELVAAISRSGGSTYYADSVKGRFTISRDNAKNTVYLQMNSLKPEDTAVYYCNAKSYGVLYWFAYDYWGQGTQVTVSS | high polyreactivity
QVQLVESGGGLVQAGGSLRLSCAASGRIFPSYAMGWYRQAPGKERELVAAISSSSAGTYYADSVKGRFTISRDNAKNTVYLQMNSLKPEDTAVYYCAAASARYRQYKSYYYWGQGTQVTVSS | high polyreactivity
QVQLVESGGGLDQAGGSLRLSCAASGNIFRIYAMGWYRQAPGKERELVATITKRGGSTYYADSVKGRFTISRDNAKNTVYLQMNSLKPEDTAVNYCNAVTKLWYDYDYWGQGTQGTVSS | high polyreactivity
QVQLVESGGGLVQAGGSLRLSCAASGSTLFAYAMGWYRQAPGKERELVAAITSGASTNCADSVKGRFTISRDNAKNTVYLQMNSLKPEDTAVYYCAKDVSGTNPDYDYWGQGTQVTVSS | low polyreactivity
QVQLVESGGGLVQAGGSLRLSCAASGRIFYSYAMGWYRQAPGKEREFVAAISRSGARTYYADSVKGRFTISRDNAKNTVYLQMNSLKPEDTAVYYCAADDFSTVEYDYWGQGTQVTVSS | low polyreactivity
QVQLVESGGGLVQAGGSLRLICAASGSIFDSYTMGWYRQAPGKERELVAAISKNGGSTYYADSVKGRFTISRDNAKNTVYFQMNSLKPEDTAFYYCARSRSGYRYDYWGQGTQVTVSS | high polyreactivity
QVQIEESGGGLVQAGGSLRLSCAASGITFYWYARGWYRQAPVTERELVAAITRSGSSTYYADSVKGRFTISRDNAKNTVYLQMYSLKPEDTAVDYCAALPYKPYYDAYDYWGQGTQVTVSS | high polyreactivity
QVQLVESGGGLVQAGGSLRLSCAASGYTFKSYALGWYRQAPGKERELVASISNDGSTNYADSVKGRFTISRDNAKNTVYLQMNSLKPEDTAVYYCNADFYDAPSQWARTGFDYWGQGTQVTVSS | low polyreactivity
QVQLVESGAGLVQAGGSLRLSCAASGSIFQPYAMGWYRQAPGKERELVAAISSSGGSTTYADSVKGRFTISRDNAKNTVYLQMNSLKPEDTADYYCAADSADDMGYWGQGTQVTVSS | low polyreactivity
QVQLVESGGGLVQAGGSLRLSCAASGSTFESNAMGWYRQAPGKERELVAAISYIDTSTYYADSVKGRFTISRDNAKNTVYLQMNSLKPEDTAVYYCATDVDWAYGYQYEYWGQGTQVTVSS | low polyreactivity
QVQLVESGGGLVQAGGSLRLSCAASGSTFVRYVMGWYRQAPGKERELVAAISEGGGSTYYADSVKGRFTISRDNAKNTVYLQMNSLKPEDTAVYYCAAGRSNSYSPRRRVTYGYNYWGQGTQVTVSS | high polyreactivity
QVQLVESRGGLVQAGGSLRLSCAASGFTFVGYAMGWYRQAPGKERALVAAISRRGTPTYYADSVKGRFTISRDNAKNTVYLQMNSLKPEDTAVYFCAASNGYQAVTYDYWGQGTQVTVSS | high polyreactivity

Sequence | polyreactivity (PSR sort gate)
QVQLVESGGGLVQAGGSLRLNCAASGSTLARYAMGWYRQAPGKERELVAAITWSGVSTYYADSVKGRFTISRDNAKNTVYLQMISLKPEDTAVYYCNARIFRSPNPYDYWGEGTQVTVSS | high polyreactivity
QVQLVESGGGLVQAGGSLRLSCAASGFIFPAYAMGWYRQAPGKEMALVAAITSGGSTNYADSVKGRFTISRDNAKNTVYLQMNSLKPEDTAVYYCAADFDSILSVRSYRSRWYDYWGQGTQVAVSS | low polyreactivity
QVQLVESGGGLVQAGGSLRLSCAASGSTLTSNAMGWYRQAPGKERELVAAIRSGGSTNYADSVKGRFTISRDNAKNTVYLQMNSLKPEDTAVYYCNKDFLWQGYGYSRVSYDYWGQGTQVTVSS | low polyreactivity
QVQLVESGGGLVQAGGSLRLSCAASGRTFRYYTMGWYRQAPGKEREFVAAISSTGGTYYADSVKGRFTISRDNAKNTVYFQMNSLKPEDTAVYYCAAYRWGILSAYYYAWYGYWGQGTQVTVSS | low polyreactivity
QVQLVESGGGLVQAGGSLRLSCAASGRTFHAYVMGWYRQAPGKERELVADISSGGDTYADSVKGRFTISRDNAKNTVYLQMNSLKPEDTAVYYCAVDLIQDESRYWGQGTQVTVSS | low polyreactivity
QVQLVESGGGLVQAGGSLRLSCAASGRIFGQNAMGWYRQAPGKERELVAAITWNGGRTYYADSVKGRFTISRDNAKNTVYLQMNSLKPEDTAVYYCNADGKHRLRDYWGQGTQVTVSS | high polyreactivity
QVQLVESGGGLLQAGGTLRLSCAASGFIFGRYAMGWYRQAPGKERELVADISWNGGSTYYADYVKGRFTISRDNAKNTVYLQMNSLKPEDTAVYYCAADYYWASFKYPYLRPYDYWGQGTQVTVSS | high polyreactivity
QVQLVESGGGLVQAGGSLRLSCAASGSTFDSNTMGWYRQAPGKERELVAAITVSGGSTHYADSVKGRFTNSRYNAKNTVYLQMNSLKPEDTAVYYCNRRSYGYGAFSGYDYWGQGTQVTVSS | low polyreactivity
QVQLVESGGGLVQAGGSLRLSCAASGSIFWPYTMGWSRQAPGKECELVAAITSTDSTDYADSVKGRFTISRDNAKNTVYLQMNSLKPEDTAVYYCNADYQSRTGSGIYTDHPYDYWGQGTQVTVSS | low polyreactivity
QVQLVESGGGLVQAGGSLRLSCAASGRIFGGNAMGWYRQAPGKERELVAAISRNGGRTYYADSVKGRFTISRDNEKNTVYLQKNSLKPEDTAFYYCNAGYKEPHYYYWGQGTQVTVSS | high polyreactivity
QVQLVESRGGLVQAGGSLRLSCAASGSIFGRNAMGWYRQAPGKERELVAAIRSGDSTNYADSVKGRFTISRDNAKNTVYLQMNSLKPEDTAVYYCAADYIFWHRRDKKSVVMDYWGQGTQVTVSS | low polyreactivity
QVQLVESGGGLVQAGGSLRLTCAASGFIFRYYAMGWYRQAPGKERELVAAISRSGGSTYYADSVKGRFTISRDNAKNTVYLQMNSLKPEDTAVYYCAAKDGRSYYDRTPMDYWGQGTQVTVSS | low polyreactivity
QVQLVESGGGLVQAGGSLRLSCAASGLTFNVYAMGWYRQAPGKERELVASITKRGGSTYYADSVKGRFTISRDNAKNTVYLQMNSLKPEDTAVYYCAADGLTGSKYRATGYYWGQGTQVTVSS | high polyreactivity
QVQLVESGGGLVQAGGSLRLSCAASGSTFSYNAMGWYIQAPGKERELVAAISWSGGSTYYADSVKGRFTISRDYAKNTVYLQMNSLKPEDTAVYYCAADSPYGYYEGDYWGQGTQVTVSS | low polyreactivity
QVQLVESGGGLVQAGGSLRLSCAASGLIFVVYAMGWYRQAPGKERELVAVISSDGGTYYADSVKGRFTISRDNAKNTVYLQMNSLKPEDTAVYYCAALGYPNARTSRISYFRYDYWGQGTQVTVSS | high polyreactivity
QVQLVESGGGLVQAGGSLRLSCAASGSTLYPYDMGWYRPAPGKERELVAAIDSGGSTNYADSVKGRFTISRDNAKNTVYLQMNSLKPEDTAVYYCATEILTSARDTVVYQFYLGYYYWGQGTQVTVSS | low polyreactivity
QVQLVESGGGLIQAGGSLRLSCAASGIIFYPYTMGWYRQAPGKERELVAAIRQSGTSTYYADSVKGRFTISRDNAKNTVYLQMNSLKPEDTAVYYCNADDHIYWRKGYDYWGQGTQVTVSS | low polyreactivity
QVQLVESGGGLVQAGGSLRLSCAASGFTFYIYAMGWYGLAAGKERELVAAINFRGGSTYYADSVKGRFTISRDNAKNTVYLQMNSLKPEDTAVKYCAARSRDKYDYWGQGTQVTVSS | high polyreactivity
QVQLVESGGGLVQAGGSLRVSCAASGRILSRNAMGWYRQAPGKERELVAAISISGGSTYYADSVKGRFTISRDNAKNTVYLQMNSLKPEDTAVYYCNTAYYGSRKYDYWGQGTQVTVSS | high polyreactivity
QVQHVESGGCLVQAGGSLRLSCASSGSIFDRNAMGWYRQAPGKERELVAAISSRGGSTYYADSVKGRFTISRDNAKNTVYLQMNSLKPEDTAVYYSAKRRDLYGGYRPYYYWGQGTQVTVSS | high polyreactivity
QVQLVESGGGLVQAGGSLRLSCAASGITFTGFAMGWYRQAPGKERELVAAITWSSGSTYYADSVKGRFTISRDNAKNTVYLQMNSLKPEDTAVYYCNAGYWYDGPDYIPEYDYWGQGTQVTVSS | low polyreactivity
